Experimental data as given in US20190352423A1 (Genmab, published 2019).
Changes are numbered by the printed parent chain. Names may count otherwise.

T1: recombinant human CD63 second extracellular domain (Ala 103-Val 203) fused with a polyhistidine tag at the … (human, UniProt P08962 103-203)
T1 construct: range 103-203; Bought from Creative BioMart; also called human His-tagged CD63; soluble CD63
T1 sequence (looked up): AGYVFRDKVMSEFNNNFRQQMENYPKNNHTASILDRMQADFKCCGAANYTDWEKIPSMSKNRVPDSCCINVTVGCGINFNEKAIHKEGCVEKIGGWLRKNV

B1: wild type IgG1-CD63 (antibody, V domains shown)
VH: EVQLQQSGPELVKPGASVKMSCKASGYTFTSYVMHWVRQTPGQGLEWIGYITPYNDGTKYNEKFKGKATLTSDKSSSTAYMELSSLTSEDSAVYYCVGGDNYYYAMDYWGQGTSVTVSA
VL: NIMVTQSPSSLAVSAGEKVTMSCKSSQSVLYSSNQKNYLAWYQQKPGQSPKLLIYWASTRVSGVPDRFTGSGSGTDFTLTISRVQAEDLAVYYCHQYFSSFTFGSGTKLEIKR
notes: Mouse 2192 variable domains on human IgG1 constant domains (heavy chain with K409R or F405L) and a human light chain constant domain; also called wt IgG1-CD63; WT
B2: IgG1-CD63N74H (antibody, V domains shown)
VH: B1 VH with N55H
VL: B1 VL
notes: also called anti-CD63-N74H

Assays:
[1] = target: T1, recombinant human CD63 second …; test: BLI (Octet HTX), IgG on anti-human Fc sensors, His-tagged CD63 as analyte, 30 C
Experimental: Association and dissociation kinetics of human His-tagged CD63 (100 nM, 50 nM, 25 nM and 12.5 nM, concentrations were calculated using the predicted molecular weight of 13 kDa) were determined in Sample Diluent (ForteBio), using an association time of 1000 s, a dissociation time of 2000 s and a shaker speed of 1000 rpm at 30° C. Data traces were corrected using a reference sensor exposed to Sample Diluent only during the association and dissociation steps, the Y-axis was aligned to baseline and Inter-step correction as well as Savitzky-Golay filtering were applied. The association rate constant Kₒₙ (1/Ms), dissociation rate constant Kdis (1/s) and equilibrium dissociation constant KD (M) were determined with ForteBio Data Analysis Software v8.1, using the 1:1 model and a global full fit.

[2] = target: T1, recombinant human CD63 second …; test: ELISA: antibody (1 µg/mL) captured on goat anti-human IgG, recombinant human His-tagged CD63 serially diluted (x axis, µg/mL CD63), detected with anti-poly-histidine-biotin, OD 405 nm
Description: To improve efficacy of ADCs, a bispecific ADC was generated that specifically binds to a target protein (T) with one Fab-arm, while its second Fab-arm binds an effector protein (E), that facilitates internalization and lysosomal delivery of the cytotoxic payload. The resulting bsADC should induce cytotoxicity in cells that express both T and E. Some cytotoxicity may also be induced in cells that express T but not E, whereas the bsADC should not induce cytotoxicity in cells that express E but not TCD63 is used as effector protein (E). To ensure tumor specificity of the bsAb, the anti-CD63 arm (E) of the bsAb should preferably not bind and internalize in the absence of the tumor-specific arm (T) or only do this to a very limited degree. […] In short, ELISA plates (Greiner) were coated overnight at 4° C. with 0.8 μg/mL goat anti-human IgG (Jackson). […] Serially diluted (1-0.0005 μg/mL) recombinant human CD63 (Creative Biomart) was added followed by 1 μg/mL mouse anti-poly-histidine-biotin (R&D). The reaction was visualized using ABTS and stopped with oxalic acid. […] at 405 nm was measured and depicted using Graph Pad Prism 6 software.

| Binder | Kd [1] [nM] | koff [1] [s⁻¹] | kon [1] [M⁻¹ s⁻¹] | EC50 (read off the curve) [2] [µg/mL] |
| --- | --- | --- | --- | --- |
| B1 | 0.54 | 0.00011 | 200000 | ~0.01 |
| B2 | 4.1 | 0.00069 | 170000 | ~0.06 |
